According to publication PMC7793260, “MreC and MreD balance the interaction between the elongasome proteins PBP2 and RodA” (PLoS Genetics, 2020):

Assays:
Settings in all cases: partners not purified
[1] = biological target: T1, mKO-PBP2^L61R (E. coli, UniProt P0AD65 1-633, L61R); assay: FRET or BRET; as the two-plasmid FRET, cells treated with mecillinam (2 mg/L) for two mass doublings
T1 construct: PBP2 of E. coli with L61R (hyperactive variant); made from pWA004 by mutagenesis PCR; also called hyperactive PBP2^L61R; source: E. coli LMC500, expressed from plasmid (15 uM IPTG), in fixed cells; not shown: mKO, N-terminal, kept
T1 sequence (looked up): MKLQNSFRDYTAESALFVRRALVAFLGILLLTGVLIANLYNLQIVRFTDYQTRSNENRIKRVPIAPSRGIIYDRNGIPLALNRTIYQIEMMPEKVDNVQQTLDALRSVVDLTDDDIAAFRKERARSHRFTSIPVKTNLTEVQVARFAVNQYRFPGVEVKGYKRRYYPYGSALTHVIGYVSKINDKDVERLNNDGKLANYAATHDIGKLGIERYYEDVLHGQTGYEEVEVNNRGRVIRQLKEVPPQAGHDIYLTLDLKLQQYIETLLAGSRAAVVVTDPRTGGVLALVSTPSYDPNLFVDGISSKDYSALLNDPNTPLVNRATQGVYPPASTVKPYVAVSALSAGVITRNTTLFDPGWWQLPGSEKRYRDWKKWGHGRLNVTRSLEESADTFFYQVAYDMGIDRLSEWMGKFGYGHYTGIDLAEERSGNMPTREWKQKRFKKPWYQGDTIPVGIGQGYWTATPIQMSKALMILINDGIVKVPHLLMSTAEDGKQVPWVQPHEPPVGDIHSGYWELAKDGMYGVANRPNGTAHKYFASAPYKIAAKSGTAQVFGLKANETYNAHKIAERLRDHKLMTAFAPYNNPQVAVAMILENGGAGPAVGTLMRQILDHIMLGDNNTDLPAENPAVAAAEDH

[2] = biological target: T2, PBP2 (wild type), fused to mKO or to mCherry (E. coli, UniProt P0AD65 1-633); assay: FRET or BRET; two-plasmid spectral FRET in E. coli LMC500 cells; mCherry fusion as acceptor, mKO fusion as donor; Gb4 medium, steady state at 28 C, 15 uM IPTG for two mass doublings, FAGA-fixed; acceptor FRET efficiency (EfA) by spectral unmixing
T2 construct: PBP2, peptidoglycan transpeptidase of the E. coli elongasome, wild type; mKO-PBP2 in all others; also called mKO-PBP2^WT; mKO-PBP2; source: E. coli LMC500, expressed from plasmid (15 uM IPTG), in fixed cells; not shown: mKO (donor construct, pWA004) or mCherry (acceptor construct), N-terminal, kept
T2 sequence (looked up): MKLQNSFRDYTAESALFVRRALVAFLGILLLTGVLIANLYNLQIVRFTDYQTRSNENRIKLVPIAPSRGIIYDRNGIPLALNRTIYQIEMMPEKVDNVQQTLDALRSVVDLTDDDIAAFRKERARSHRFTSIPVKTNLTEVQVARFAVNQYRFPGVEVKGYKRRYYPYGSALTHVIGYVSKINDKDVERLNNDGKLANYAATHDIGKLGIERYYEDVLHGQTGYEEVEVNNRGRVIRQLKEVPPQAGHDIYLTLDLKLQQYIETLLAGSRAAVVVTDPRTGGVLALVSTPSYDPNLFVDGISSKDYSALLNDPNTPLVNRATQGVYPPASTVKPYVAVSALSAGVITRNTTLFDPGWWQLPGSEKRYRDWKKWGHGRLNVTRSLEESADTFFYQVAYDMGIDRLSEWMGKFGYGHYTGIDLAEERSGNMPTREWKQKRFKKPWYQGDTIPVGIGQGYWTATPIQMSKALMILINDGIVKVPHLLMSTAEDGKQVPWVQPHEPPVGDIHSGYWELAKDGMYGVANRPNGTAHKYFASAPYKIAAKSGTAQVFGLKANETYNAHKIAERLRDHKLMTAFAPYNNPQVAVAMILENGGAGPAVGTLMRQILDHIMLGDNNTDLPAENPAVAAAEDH

[3] = biological target: T3, mKO-PBP2^S330C (E. coli, UniProt P0AD65 1-633, S330C); assay: as above
T3 construct: made from pWA004 by mutagenesis PCR; source: E. coli LMC500, expressed from plasmid (15 uM IPTG), in fixed cells; not shown: mKO, N-terminal, kept
T3 sequence (looked up): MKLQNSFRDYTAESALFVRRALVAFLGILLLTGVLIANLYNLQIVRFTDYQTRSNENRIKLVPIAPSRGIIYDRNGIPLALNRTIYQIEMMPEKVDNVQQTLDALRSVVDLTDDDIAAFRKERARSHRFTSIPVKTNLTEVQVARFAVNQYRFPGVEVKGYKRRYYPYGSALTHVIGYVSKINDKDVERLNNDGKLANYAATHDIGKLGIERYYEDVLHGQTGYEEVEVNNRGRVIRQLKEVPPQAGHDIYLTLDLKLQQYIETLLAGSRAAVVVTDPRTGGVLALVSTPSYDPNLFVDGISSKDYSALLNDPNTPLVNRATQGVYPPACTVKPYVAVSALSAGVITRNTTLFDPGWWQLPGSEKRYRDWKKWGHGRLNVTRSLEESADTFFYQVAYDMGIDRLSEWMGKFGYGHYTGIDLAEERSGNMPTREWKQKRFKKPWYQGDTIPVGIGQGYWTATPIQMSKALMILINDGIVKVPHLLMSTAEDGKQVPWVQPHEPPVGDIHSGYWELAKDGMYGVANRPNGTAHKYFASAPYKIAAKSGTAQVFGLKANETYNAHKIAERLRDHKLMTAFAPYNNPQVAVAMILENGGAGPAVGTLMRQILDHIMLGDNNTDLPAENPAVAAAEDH

B1: RodA (wild type), fused to mCherry or to mKO (enzyme, E. coli, UniProt P0ABG7 1-370, looked up)
chain: MTDNPNKKTFWDKVHLDPTMLLILLALLVYSALVIWSASGQDIGMMERKIGQIAMGLVIMVVMAQIPPRVYEGWAPYLYIICIILLVAVDAFGAISKGAQRWLDLGIVRFQPSEIAKIAVPLMVARFINRDVCPPSLKNTGIALVLIFMPTLLVAAQPDLGTSILVALSGLFVLFLSGLSWRLIGVAVVLVAAFIPILWFFLMHDYQRQRVMMLLDPESDPLGAGYHIIQSKIAIGSGGLRGKGWLHGTQSQLEFLPERHTDFIFAVLAEELGLVGILILLALYILLIMRGLWIAARAQTTFGRVMAGGLMLILFVYVFVNIGMVSGILPVVGVPLPLVSYGGSALIVLMAGFGIVMSIHTHRKMLSKSV
notes: RodA, peptidoglycan glycosyltransferase of the E. coli elongasome; wild-type rodA gene; mCh-RodA in all others; also called mCh-RodA; mKO-RodA; source: E. coli LMC500, expressed from plasmid (15 uM IPTG), in fixed cells; not shown: mCherry (acceptor construct, pSAV047-RodA) or mKO (donor construct, pXL56), N-terminal, kept
Question: B1 was tested. Which “EfA (acceptor FRET efficiency)” value [1] did it give?
Answer: The value was 6.3%.

Question: What about the “EfA (acceptor FRET efficiency)” value [2] of the same binder?
Answer: Its value is 12.7%.

Question: And the “EfA (acceptor FRET efficiency)” value [3]?
Answer: Its value is 10.2%.
